First the molecules themselves.
B1: aptamer ID 3(31) (ssRNA)
RNA: GGGAUACUAGGGCAUUAAUGUUACCAGUGUAGUCCC
modifications: 2'-F at U8,U16,U21,U28,U30; 2'-OH at G12,G27,G29; all others 2'-OMe; PS between G27 and U28
B2: aptamer ID 3(36) (ssRNA)
RNA: B1 RNA
modifications: 2'-F at U8,U16,U21,U28,U30; 2'-OH at G12,G27,G29; all others 2'-OMe; 5' PEG 80K (GL4-800TS)-C6; 3' idT
B3: aptamer ID 3(14) (ssRNA)
RNA: B1 RNA
modifications: 2'-OMe at G1,G2,G3,A4,A9,G10,G11,A14,A17,A18,G20,U22,A23,A26; other C and U 2'-F; other purines 2'-OH
B4: aptamer ID 3(40) (ssRNA)
RNA: B1 RNA
modifications: 2'-F at U8,U16,U21,U28,U30; 2'-OH at G12,G27,G29; all others 2'-OMe; 5' PEG 40K (GL2-400TS)-ssH; 3' idT
B5: aptamer ID 3(16) (ssRNA)
RNA: B1 RNA
modifications: 2'-OMe at G1,G2,G3,A4,C7,A9,G10,G11,A14,A17,A18,G20,A23,A26; other C and U 2'-F; other purines 2'-OH
B6: aptamer ID 3(39) (ssRNA)
RNA: B1 RNA
modifications: 2'-F at U8,U16,U21,U28,U30; 2'-OH at G12,G27,G29; all others 2'-OMe; 5' PEG 10K 4-branched (PTE-100CS)-C6; 3' idT
B7: aptamer ID 3(29) (ssRNA)
RNA: B1 RNA
modifications: 2'-F at U8,U16,U21,U28,U30; 2'-OH at G12,G27,G29; all others 2'-OMe; PS between G12 and C13

T1 sequence (P09038 135-288, one chain of several): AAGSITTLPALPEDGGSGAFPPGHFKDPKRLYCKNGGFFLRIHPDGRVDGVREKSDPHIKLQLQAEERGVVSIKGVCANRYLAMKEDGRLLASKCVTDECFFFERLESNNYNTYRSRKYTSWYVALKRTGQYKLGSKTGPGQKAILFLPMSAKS

The first series has as its target T1, FGF2 (Homo sapiens, UniProt P09038 P09038:135-288). In words: inhibition; SPR inhibition of FGF2-FGFR1alpha(IIIc); each 0.1 uM. To be noted: tags: Peprotech. On the procedure:
BIAcore2000 manufactured by BIAcore was used for the measurement. As directed in BIAcore Company's protocol, Protein A (21181, manufactured by PIERCE) was immobilized on a CM5 sensor chip. About 1,000 RU of human FGFR1α (IIIc), R2α (IIIc), R3 (IIIc), R4 (manufactured by R&D Systems) fused with the Fc portion of IgG (manufactured by R&D systems) was each immobilized thereon. As analyte, a mixture of FGF2 (0.1 μM), heparin (0.1 μM) (manufactured by Pfizer) and aptamer (0.15 μM) was flown. Before an inhibitory test, a mixture of FGF2 and heparin was confirmed to bind to 4 kinds of receptors. […] A sensorgram showing that the aptamer shown by aptamer ID 1 inhibits binding of FGF2 and FGFR1α(IIIc), 2α(IIIc), 3(IIIc), 4 is shown in FIG. 2.
In addition, the inhibitory rate against each of the 4 kinds of receptors was determined. The inhibitory rate was determined with the maximum binding amount of the FGF2 and heparin mixture as 0, and the binding amount with an injection buffer alone as 100. The binding amount here means the RU value of the peak top of sensorgram. The inhibitory rate was calculated. […] The inhibitory rate of other aptamers was not more than 50%.
To enhance FGF2-binding activity, stability, drug deliverability and the like, the nucleic acids shown by aptamer IDs 3(1)-3(40), aptamer IDs 4 and 4(1)-4(4), aptamer ID 5 and aptamer ID 6 were chemically synthesized based on the aptamer shown in SEQ ID NO: 3. Here, the aptamer shown by aptamer ID 4 is the aptamer shown by aptamer ID 3(19) wherein one G(M) at the 5′-terminal and one C(M) at the 3′-terminal have been deleted. The aptamer shown by aptamer ID 5 is the aptamer shown by aptamer ID 3(19) wherein one G(M) has been added at the 5′-terminal and one C(M) has been added at the 3′-terminal. The aptamer shown by aptamer ID 6 is the aptamer shown by aptamer ID 3(19) wherein A(M) alone has been added at the 5′-terminal. These nucleic acids were produced by chemical synthesis.
In the case of GGGAUACUAGGGCAUUAAUGUUACCAGUGUAGUCCC (ssRNA, all C and U 2'-F; 2'-OMe at A6; other purines 2'-OH) [aptamer ID 3(9)], the activity was 89%. B1 gave an activity of 91%. Regarding GGGAUACUAGGGCAUUAAUGUUACCAGUGUAGUCCC (ssRNA, all C and U 2'-F; 2'-OMe at A26; other purines 2'-OH) [aptamer ID 3(7)], the activity stood at 89%.

In the case of B2, the activity was 98%. Still for that read-out and setting: to B3 belongs 87%; to B4, 97%. GGGAUACUAGGGCAUUAAUGUUACCAGUGUAGUCCC (ssRNA, all C and U 2'-F; 2'-OMe at G11; other purines 2'-OH) [aptamer ID 3(3)] had an activity of 87%. Same read-out and setting: under GGGAUACUAGGGCAUUAAUGUUACCAGUGUAGUCCC (ssRNA, all C and U 2'-F; 2'-OMe at G1,G2,G3,A4; other purines 2'-OH) [aptamer ID 3(2)] stands 89%. In the case of B5, the activity came out at 87%. GGGAUACUAGGGCAUUAAUGUUACCAGUGUAGUCCC (ssRNA, all C and U 2'-F; 2'-OMe at G32; other purines 2'-OH) [aptamer ID 3(10)] registered an activity of 89%. GGGAUACUAGGGCAUUAAUGUUACCAGUGUAGUCCC (ssRNA, 2'-F at U8,U16,U21,U28,U30; 2'-OH at G12,G27,G29; all others 2'-OMe) [aptamer ID 3(18)]: the activity amounted to 89%. On the same count and under the same terms, to GGGAUACUAGGGCAUUAAUGUUACCAGUGUAGUCCC (ssRNA, 2'-F at U8,U16,U21,U28,U30; G12 DNA (2'-H); 2'-OH at G27,G29; all others 2'-OMe) [aptamer ID 3(23)] belongs 91%. The same measure, in the same setting: to B6 belongs 97%; to B7, 91%; to GGGAUACUAGGGCAUUAAUGUUACCAGUGUAGUCCC (ssRNA, 2'-F at U8,G12,U16,U21,U28,U30; 2'-OH at G27,G29; all others 2'-OMe) [aptamer ID 3(25)], 90%. The molecule GGGAUACUAGGGCAUUAAUGUUACCAGUGUAGUCCC (ssRNA, 2'-F at U8,U16,U21,U28,G29,U30; 2'-OH at G12,G27; all others 2'-OMe) [aptamer ID 3(27)] gave an activity of 99%. GGGAUACUAGGGCAUUAAUGUUACCAGUGUAGUCCC (ssRNA, all C and U 2'-F; 2'-OMe at A31; other purines 2'-OH) [aptamer ID 3(11)] registered an activity of 88%.

GGAUACUAGGGCAUUAAUGUUACCAGUGUAGUCC (ssRNA, 2'-F at U7,U15,U20,U27,U29; 2'-OH at G11,G26,G28; all others 2'-OMe; 3' idT) [aptamer ID 4] returned an activity of 95%. The same measure, in the same setting: under GGAUACUAGGGCAUUAAUGUUACCAGUGUAGUCC (ssRNA, 2'-F at U7,G11,U15,U20,U27,U29; 2'-OH at G26,G28; all others 2'-OMe; 3' idT) [aptamer ID 4(1)] stands 93%; under GGAUACUAGGGCAUUAAUGUUACCAGUGUAGUCC (ssRNA, 2'-F at U7,G11,U15,U20,G26,U27,U29; 2'-OH at G28; all others 2'-OMe; 3' idT) [aptamer ID 4(2)], 94%.

The target of the next series is T1, FGF2. In words: cell_activity; HUVEC proliferation, FGF2 0.58 nM. The following applies: tags: Peprotech. Here is the method:
Human umbilical vein endothelial cells (HUVEC) were seeded in a 96 well flat bottom plate at 5×10³ cells per well, and cultured overnight using a medium EGM-2 Bullet Kit for endothelial cells (CC-3162 manufactured by Lonza) containing 2% fetal bovine serum and growth factors. Thereafter, the medium was discarded, the cells were washed twice with PBS buffer, and a mixture of the aptamer shown by aptamer ID 3(21) (5, 2.5, 1, 0.5 nM) and FGF2 (final concentration 0.5 nM), dissolved in a medium exclusively for endothelial cells containing 2% fetal bovine serum, was added. After 72 hr, viable cell number was examined using Cell Counting Kit-8. For the measurement of absorbance, a microplate reader (450 nm) was used. One sample was measured at n=3. As a positive control, anti-FGF2 antibody Anti-FGF, basic (Ab-3) Mouse mAb (3H3) (manufactured by Calbiochem) were used. With the OD value per well obtained by the addition of FGF2 alone and culture of the cells for 3 days as inhibitory activity 0%, and that of the cell obtained by FGF2 free culture for 3 days as inhibitory activity 100%, the inhibitory activity of the aptamer was calculated from the OD value per well obtained by culturing with the addition of a mixture of FGF2 and the aptamer. As a result, it was shown that the aptamer shown by aptamer ID 3(21) has a high inhibitory activity against FGF2.
By a method similar to the above except that the 96 well flat bottom plate was changed to a collagen-coated one, the activity of various aptamers was evaluated. The concentration of FGF2 added was 0.58 nM. As a negative control RNA, Macugen (registered trade mark) sequence without addition of PEG, and with C6 modification of the 5′-terminal and idT modification of the 3′-terminal was used.
Take B1: it took 10 nM to reach half-maximal inhibition (IC50).

In the case of B3, half-maximal inhibition (IC50) required 12 nM. The same measure, in the same setting: to B5 belongs 7.9 nM; to GGGAUACUAGGGCAUUAAUGUUACCAGUGUAGUCCC (ssRNA, 2'-F at U8,U16,U21,U28,U30; 2'-OH at G12,G27,G29; all others 2'-OMe) [aptamer ID 3(18)], 2.6 nM; to GGGAUACUAGGGCAUUAAUGUUACCAGUGUAGUCCC (ssRNA, 2'-F at U8,U16,U21,U28,U30; G12 DNA (2'-H); 2'-OH at G27,G29; all others 2'-OMe) [aptamer ID 3(23)], 5.3 nM. Still for that read-out and setting: under B7 stands 3.1 nM; under GGGAUACUAGGGCAUUAAUGUUACCAGUGUAGUCCC (ssRNA, 2'-F at U8,G12,U16,U21,U28,U30; 2'-OH at G27,G29; all others 2'-OMe) [aptamer ID 3(25)], 5.1 nM; under GGGAUACUAGGGCAUUAAUGUUACCAGUGUAGUCCC (ssRNA, 2'-F at U8,U16,U21,U28,G29,U30; 2'-OH at G12,G27; all others 2'-OMe) [aptamer ID 3(27)], 3.7 nM. Same read-out and setting: to GGAUACUAGGGCAUUAAUGUUACCAGUGUAGUCC (ssRNA, 2'-F at U7,U15,U20,U27,U29; 2'-OH at G11,G26,G28; all others 2'-OMe; 3' idT) [aptamer ID 4] belongs 5 nM; to GGAUACUAGGGCAUUAAUGUUACCAGUGUAGUCC (ssRNA, 2'-F at U7,G11,U15,U20,U27,U29; 2'-OH at G26,G28; all others 2'-OMe; 3' idT) [aptamer ID 4(1)], 3.8 nM. On to GGAUACUAGGGCAUUAAUGUUACCAGUGUAGUCC (ssRNA, 2'-F at U7,G11,U15,U20,G26,U27,U29; 2'-OH at G28; all others 2'-OMe; 3' idT) [aptamer ID 4(2)], for which inhibition was half-maximal at 5.1 nM (IC50).

The record behind these values is patent US20170157165, “APTAMER FOR FGF2 AND USE THEREOF” (RIBOMIC INC., published 2017).
